According to PMC5708649 (PLoS ONE, 2017):

B1: tynorphin (peptide)
peptide: VVYPW
notes: also called VVYPW; pentapeptide tynorphin

Target: inactive E433A variant of full-length PgDPP III (Porphyromonas gingivalis W83, UniProt Q7MX92 1-886, E433A)
Assay: ITC
Conditions: both partners purified

| Binder | binding result |
| --- | --- |
| B1 | binds |
| IVYPW | binds |
